To fix the notation:
B1: anti-DLL3 trispecific protein, DLL3 binder 4E06 (protein, part only; not given: anti-CD3 fragment and anti-albumin domain, part only)
chain, part: EVQLVESGGGLVQPGGSLTLSCAASGTSVSFLSMAWYRQAPGKKRELVAGISADGSTDYIRSVKGRFTISRDNAKNSVYLQMNSLRAEDTAVYYCYAYRWTTRLTYWGQGTLVTVSSGGGGSGGGSGGGGSGGGSHHHHHH
B2: anti-DLL3 trispecific protein, DLL3 binder 3B01 (protein, part only; not given: anti-CD3 fragment and anti-albumin sdAb, part only)
chain, part: EVQLVESGGGLVQPGGSLTLSCAASGSSVSFLSMAWYRQAPGKKRELVAGISGDGSTDYIDSVKGRFTISRDNAKNSVYLQMNSLRAEDTAVYYCYAYRWTTRYTYWGQGTLVTVSSGGGGSGGGSGGGGSGGGSHHHHHH
B3: anti-DLL3 trispecific protein, DLL3 binder 4B08 (protein, part only; not given: CD3 fragment and albumin sdAb, part only)
chain, part: EVQLVESGGGLVQPGGSLTLSCAASGSSVSFMSMAWYRQAPGKKRELVAGISADGSTDYIASVKGRFTISRDNAKNSVYLQMNSLRAEDTAVYYCYAYRWTTRSTYWGQGTLVTVSSGGGGSGGGSGGGGSGGGSHHHHHH
B4: anti-DLL3 trispecific protein, DLL3 binder 3F06 (protein, part only; not given: anti-CD3 fragment and anti-albumin sdAb, part only)
chain, part: EVQLVESGGGLVQPGGSLTLSCAASGSRVSFLSMAWYRQAPGKKRELVAGISADGSTSYIDSVKGRFTISRDNAKNSVYLQMNSLRAEDTAVYYCYAYRWATRYTYWGQGTLVTVSSGGGGSGGGSGGGGSGGGSHHHHHH
B5: anti-DLL3 trispecific protein, DLL3 binder 4E07 (protein, part only; not given: CD3 binder and albumin binder, part only)
chain, part: EVQLVESGGGLVQPGGSLTLSCAASGSRVSFLSMAWYRQAPGKKRELVAGISADGSTMYIDSVKGRFTISRDNAKNSVYLQMNSLRAEDTAVYYCYAYRWTTRLTYWGQGTLVTVSSGGGGSGGGSGGGGSGGGSHHHHHH
B6: anti-DLL3 trispecific protein, DLL3 binder 3D03 (protein, part only; not given: anti-CD3 fragment and anti-albumin sdAb, part only)
chain, part: EVQLVESGGGLVQPGGSLTLSCAASGSSVVFLSMAWYRQAPGKKRELVAGISADGSMDYIDSVKGRFTISRDNAKNSVYLQMNSLRAEDTAVYYCYAYRWRTRYTYWGQGTLVTVSSGGGGSGGGSGGGGSGGGSHHHHHH
B7: anti-DLL3 trispecific protein, DLL3 binder 3C06 (protein, part only; not given: CD3 binder and albumin binder, part only)
chain, part: EVQLVESGGGLVQPGGSLTLSCAASGTSVSFLSIAWYRQAPGKKRELVAGISADGSTDYIASVKGRFTISRDNAKNSVYLQMNSLRAEDTAVYYCYAYRWRTRYTYWGQGTLVTVSSGGGGSGGGSGGGGSGGGSHHHHHH
B8: anti-DLL3 trispecific protein, DLL3 binder 3E011 (protein, part only; not given: CD3 binder and albumin binder, part only)
chain, part: EVQLVESGGGLVQPGGSLTLSCAASGSKVSFLSMAWYRQAPGKKRELVAGISRDGSTDYIDSVKGRFTISRDNAKNSVYLQMNSLRAEDTAVYYCYAYRWTTRYTFWGQGTLVTVSSGGGGSGGGSGGGGSGGGSHHHHHH
B9: anti-DLL3 trispecific protein, DLL3 binder 4B01 (protein, part only; not given: anti-CD3 and anti-albumin domains, part only)
chain, part: EVQLVESGGGLVQPGGSLTLSCAASGSSVKFLSMAWYRQAPGKKRELVAGISRDGSTDYIDSVKGRFTISRDNAKNSVYLQMNSLRAEDTAVYYCYAYRWTTRFTYWGQGTLVTVSSGGGGSGGGSGGGGSGGGSHHHHHH
B10: anti-DLL3 trispecific protein, DLL3 binder 3E09 (protein, part only; not given: CD3 binder and albumin binder, part only)
chain, part: EVQLVESGGGLVQPGGSLTLSCAASGSSVRFLSMAWYRQAPGKKRELVAGISRDGSTDYIDSVKGRFTISRDNAKNSVYLQMNSLRAEDTAVYYCYAYRWSTRYTYWGQGTLVTVSSGGGGSGGGSGGGGSGGGSHHHHHH
B11: anti-DLL3 trispecific protein, DLL3 binder 3D01 (protein, part only; not given: CD3 binder and albumin binder, part only)
chain, part: EVQLVESGGGLVQPGGSLTLSCAASGSSVSFLSMAWYRQAPGKKRELVAGISRDGSTDYIDSVKGRFTISRDNAKNSVYLQMNSLRAEDTAVYYCYAYRWITRYTYWGQGTLVTVSSGGGGSGGGSGGGGSGGGSHHHHHH
B12: anti-DLL3 trispecific protein, DLL3 binder 4A01 (protein, part only; not given: CD3 binder and albumin binder, part only)
chain, part: EVQLVESGGGLVQPGGSLTLSCAASGSSVRFLSMAWYRQAPGKKRELVAGISQDGSTDYIDSVKGRFTISRDNAKNSVYLQMNSLRAEDTAVYYCYAYRWRTRYTYWGQGTLVTVSSGGGGSGGGSGGGGSGGGSHHHHHH
B13: anti-DLL3 trispecific protein, DLL3 binder 4E01 (protein, part only; not given: anti-CD3 fragment and anti-albumin sdAb, part only)
chain, part: EVQLVESGGGLVQPGGSLTLSCAASGSSVSFLSVAWYRQAPGKKRELVAGISRDGSTDYIDSVKGRFTISRDNAKNSVYLQMNSLRAEDTAVYYCYAYRWRTRYTYWGQGTLVTVSSGGGGSGGGSGGGGSGGGSHHHHHH
B14: anti-DLL3 trispecific protein, DLL3 binder 1D08 (protein, part only; not given: CD3 binder and albumin binder, part only)
chain, part: EVQLVESGGGLVQPGGSLTLSCVASGLTSSINAMGWYRRAPGKQRELVAGISSDGSKVYADSVKGRFTISRDNAKNSVYLQMNSLRAEDTAVYYCYYFRMVSGSSMRYWGQGTLVTVSSGGGGSGGGSGGGGSGGGSHHHHHH
B15: anti-DLL3 trispecific protein, DLL3 binder 2G04 (protein, part only; not given: anti-CD3 fragment and anti-albumin sdAb, part only)
chain, part: EVQLVESGGGLVQPGGSLTLSCVASGSTSSINAMGWYRRAPGKQRELVAGISSDGSLVYADSVKGRFTISRDNAKNSVYLQMNSLRAEDTAVYYCYYFRILSGSSMRYWGQGTLVTVSSGGGGSGGGSGGGGSGGGSHHHHHH
B16: anti-DLL3 trispecific protein, DLL3 binder 2B01 (protein, part only; not given: CD3 fragment and albumin sdAb, part only)
chain, part: EVQLVESGGGLVQPGGSLTLSCVASGSTSLINAMGWYRRAPGKQRELVAGISSDGSKVYADSVKGRFTISRDNAKNSVYLQMNSLRAEDTAVYYCYYFRHVSGSSMRYWGQGTLVTVSSGGGGSGGGSGGGGSGGGSHHHHHH
B17: anti-DLL3 trispecific protein, DLL3 binder 1G09 (protein, part only; not given: anti-CD3 fragment and anti-albumin domain, part only)
chain, part: EVQLVESGGGLVQPGGSLTLSCVASGSTSSINAMGWYRRAPGKQRELVAGISSDGSKVYADSVKGRFTISRDNAKNSVYLQMNSLRAEDTAVYYCYYFRTVSKSSMRYWGQGTLVTVSSGGGGSGGGSGGGGSGGGSHHHHHH
B18: anti-DLL3 trispecific protein, DLL3 binder 1H02 (protein, part only; not given: anti-CD3 fragment and anti-albumin domain, part only)
chain, part: EVQLVESGGGLVQPGGSLTLSCVASGSKSSINAMGWYRRAPGKQRELAAGISSDGSKVYAQSVKGRFTISRDNAKNSVYLQMNSLRAEDTAVYYCYYFRTSSGSSMRYWGQGTLVTVSSGGGGSGGGSGGGGSGGGSHHHHHH
B19: anti-DLL3 trispecific protein, DLL3 binder 2A09 (protein, part only; not given: anti-CD3 and anti-albumin domains, part only)
chain, part: EVQLVESGGGLVQPGGSLTLSCVASGSTSSRNAMGWYRRAPGKQRELVAGISSNGSKVYSDSVKGRFTISRDNAKNSVYLQMNSLRAEDTAVYYCYYFRTVSGSSMSYWGQGTLVTVSSGGGGSGGGSGGGGSGGGSHHHHHH
B20: anti-DLL3 trispecific protein, DLL3 binder 2F06 (protein, part only; not given: CD3 fragment and albumin sdAb, part only)
chain, part: EVQLVESGGGLVQPGGSLTLSCVASGSTSSINAYGWYRRAPGKQRELVAGISSDGSAVYADSVKGRFTISRDNAKNSVYLQMNSLRAEDTAVYYCYYFRTHSGSSMRYWGQGTLVTVSSGGGGSGGGSGGGGSGGGSHHHHHH
B21: anti-DLL3 trispecific protein, DLL3 binder 1B02 (protein, part only; not given: anti-CD3 fragment and anti-albumin sdAb, part only)
chain, part: EVQLVESGGGLVQPGGSLTLSCVASGSTSSINAMGWYRRAPGKQRELVAGISSDGSKIYADSVKGRFTISRDNAKNSVYLQMNSLRAEDTAVYYCYYFRTVSGSSMRYWGQGTLVTVSSGGGGSGGGSGGGGSGGGSHHHHHH
B22: anti-DLL3 trispecific protein, DLL3 binder 2E06 (protein, part only; not given: CD3 binder and albumin binder, part only)
chain, part: EVQLVESGGGLVQPGGSLTLSCVASGSTSSINAMGWYRRAPGKQRELVAGISSDGSKVYASSVKGRFTISRDNAKNSVYLQMNSLRAEDTAVYYCYYFRTVRGSSMRYWGQGTLVTVSSGGGGSGGGSGGGGSGGGSHHHHHH
B23: anti-DLL3 trispecific protein, DLL3 binder 1B04 (protein, part only; not given: CD3 fragment and albumin sdAb, part only)
chain, part: EVQLVESGGGLVQPGGSLTLSCVASGTTSSINAMGWYRRAPGKQRELVAGISSDGSLVYADSVKGRFTISRDNAKNSVYLQMNSLRAEDTAVYYCYYFRIVRGSSMRYWGQGTLVTVSSGGGGSGGGSGGGGSGGGSHHHHHH
B24: anti-DLL3 trispecific protein, DLL3 binder 1F04 (protein, part only; not given: anti-CD3 and anti-albumin domains, part only)
chain, part: EVQLVESGGGLVQPGGSLTLSCVASGGTSSINAMGWYRRAPGKQRELVAGISSDGSKVYSDSVKGRFTISRDNAKNSVYLQMNSLRAEDTAVYYCYYFRTVSGSSARYWGQGTLVTVSSGGGGSGGGSGGGGSGGGSHHHHHH
B25: anti-DLL3 trispecific protein, DLL3 binder 2B010 (protein, part only; not given: CD3 fragment and albumin sdAb, part only)
chain, part: EVQLVESGGGLVQPGGSLTLSCVASGSTSSRNAMGWYRRAPGKQRELVAGISSDGSKLYLDSVKGRFTISRDNAKNSVYLQMNSLRAEDTAVYYCYYFRTVLGSSMRYWGQGTLVTVSSGGGGSGGGSGGGGSGGGSHHHHHH
B26: anti-DLL3 trispecific protein 4A07 (protein, part only; not given: CD3 binder and albumin binder, part only)
chain, part: EVQLVESGGGLVQPGGSLTLSCAASGSKVSFLSMAWYRQAPGKKRELVAGISADGSTLYIDSVKGRFTISRDNAKNSVYLQMNSLRAEDTAVYYCYAYRWTTRYRYWGQGTLVTVSSGGGGSGGGSGGGGSGGGSHHHHHH
B27: anti-DLL3 trispecific protein 3H03 (protein, part only; not given: anti-CD3 fragment and anti-albumin domain, part only)
chain, part: EVQLVESGGGLVQPGGSLTLSCAASGSSVRFLSMAWYRQAPGKKRELVAGISTDGSTDYIDSVKGRFTISRDNAKNSVYLQMNSLRAEDTAVYYCYALRWTTRYTYWGQGTLVTVSSGGGGSGGGSGGGGSGGGSHHHHHH
B28: anti-DLL3 trispecific protein 4D010 (protein, part only; not given: anti-CD3 fragment and anti-albumin sdAb, part only)
chain, part: EVQLVESGGGLVQPGGSLTLSCAASGSSVSFLSMAWYRQAPGKKRELVAGISADGSTDYIHSVKGRFTISRDNAKNSVYLQMNSLRAEDTAVYYCYAYRWRTRYTYWGQGTLVTVSSGGGGSGGGSGGGGSGGGSHHHHHH
B29: anti-DLL3 trispecific protein 4G010 (protein, part only; not given: anti-CD3 and anti-albumin domains, part only)
chain, part: EVQLVESGGGLVQPGGSLTLSCAASGHSVSFLSMAWYRQAPGKKRELVAGISADGSTDYIASVKGRFTISRDNAKNSVYLQMNSLRAEDTAVYYCYAYRWSTRYTYWGQGTLVTVSSGGGGSGGGSGGGGSGGGSHHHHHH

The first test concerns the target biotinylated human DLL3 protein expressed as a human IgG1 fusion protein (human) (UniProt Q9NYJ7). The test can be described thus: Octet, biotinylated human DLL3-IgG1 fusion on streptavidin tips, single 50 nM, conditioned medium (relative KD).
Target sequence in this assay (Q9NYJ7 27-492): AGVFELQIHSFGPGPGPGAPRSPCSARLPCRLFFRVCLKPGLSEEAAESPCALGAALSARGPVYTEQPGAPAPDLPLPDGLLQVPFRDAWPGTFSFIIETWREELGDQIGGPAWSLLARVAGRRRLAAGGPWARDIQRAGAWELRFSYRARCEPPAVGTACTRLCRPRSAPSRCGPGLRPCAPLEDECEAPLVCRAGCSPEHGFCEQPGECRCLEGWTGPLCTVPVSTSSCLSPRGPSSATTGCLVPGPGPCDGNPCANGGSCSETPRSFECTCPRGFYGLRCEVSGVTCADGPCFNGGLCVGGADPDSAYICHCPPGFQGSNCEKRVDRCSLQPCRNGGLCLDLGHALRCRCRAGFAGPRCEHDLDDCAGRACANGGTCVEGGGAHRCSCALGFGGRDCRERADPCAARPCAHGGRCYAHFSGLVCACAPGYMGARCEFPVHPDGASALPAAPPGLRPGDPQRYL
For the molecule B1, the dissociation constant Kd (as a rule, the free concentration of one partner at which half of the binding sites on the other are occupied at equilibrium, for simple one-to-one binding) came out at 10 nM. Take B2: the Kd amounted to 10 nM. In turn, B3 yielded a Kd of 10 nM.

For the molecule B4, the Kd was determined as 9.9 nM.

B5: the Kd came out at 11 nM. Consider B6, for which the Kd amounted to 11 nM. This counts as double-digit nanomolar. The same measure, in the same setting: the same measure for B7: 10 nM; for B8: 11 nM. The molecule B9 registered a Kd of 11 nM. Still for that read-out and setting: the same measure for B10: 10 nM.

The molecule B11 returned a Kd of 10 nM. As for B12, the Kd came to 10 nM. This counts as double-digit nanomolar.

The molecule B13 gave a dissociation constant Kd of 11 nM. The same measure, in the same setting: next, B14: 10 nM. Molecule B15 showed an equilibrium dissociation constant (Kd) of 11 nM.

For the molecule B16, the Kd was 10 nM. Molecule B17 returned a Kd of 10 nM.

In turn, B18 had a dissociation constant (Kd) of 10 nM. The same measure, in the same setting: the same measure for B19: 10 nM; for B20: 10 nM. Take B21: the dissociation constant (Kd) stood at 11 nM.

B22 had a Kd of 11 nM. The molecule B23 showed a dissociation constant (Kd) of 11 nM. For the molecule B24, the Kd was determined as 10 nM. The molecule B25 returned a Kd of 10 nM.

The target is the same in a further test. The test can be described thus: Octet BLI; biotinylated huDLL3-IgG1 fusion on streptavidin tips; single 50 nM; conditioned medium.
Target sequence in this assay (Q9NYJ7 other isoform, or with tags, fused parts or gaps): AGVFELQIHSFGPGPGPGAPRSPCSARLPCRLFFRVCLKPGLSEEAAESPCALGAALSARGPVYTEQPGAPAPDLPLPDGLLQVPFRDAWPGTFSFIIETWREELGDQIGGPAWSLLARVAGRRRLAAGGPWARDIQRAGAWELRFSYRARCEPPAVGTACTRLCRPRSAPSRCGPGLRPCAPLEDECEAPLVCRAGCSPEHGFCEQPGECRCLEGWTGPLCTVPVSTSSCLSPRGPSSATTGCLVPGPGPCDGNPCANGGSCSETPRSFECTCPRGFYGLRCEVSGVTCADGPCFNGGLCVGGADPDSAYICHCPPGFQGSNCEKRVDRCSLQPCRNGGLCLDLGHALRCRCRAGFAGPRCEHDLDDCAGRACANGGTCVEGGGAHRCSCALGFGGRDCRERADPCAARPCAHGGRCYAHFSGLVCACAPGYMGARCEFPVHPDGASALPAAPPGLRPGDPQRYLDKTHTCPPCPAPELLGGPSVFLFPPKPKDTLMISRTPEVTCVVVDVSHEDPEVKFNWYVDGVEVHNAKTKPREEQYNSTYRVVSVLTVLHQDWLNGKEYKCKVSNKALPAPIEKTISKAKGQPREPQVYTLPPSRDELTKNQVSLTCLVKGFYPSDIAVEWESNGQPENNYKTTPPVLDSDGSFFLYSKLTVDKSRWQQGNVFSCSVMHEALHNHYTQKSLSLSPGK
As for B26, the Kd was 9.8 nM. This lies in the single-digit nanomolar range. Turning to B27, the Kd stood at 9.9 nM.

As for B28, the Kd is 9.9 nM.

For the molecule B29, the Kd is 9.9 nM. In other words, the single-digit nanomolar range.

For the origin of these results see US20200095340A1.
